A value given as a limit tells only on which side of the number the result lay.

This series in a line: purified protein yield per well (BCA); higher = higher soluble expression. The gist of the method:
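Candidate enzymes were made in 2 mL autoinduction cultures of E. coli C41(DE3) with 100 µg/mL kanamycin, at 37 °C for 2 h and then 18 °C for 40 h, and purified with Ni-charged magnetic beads and SUMO protease cleavage. The Pierce Rapid Gold BCA kit gave purified protein yield per well. Values lower than 25 ug (0.1 mg/mL) are below the detection threshold.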
For the sequence “AVQNGPAPTSTSVNAAGTYATASSAVAASASLGFGGGTIYYPTAAGTYGVIALCPGFTATQTSVAWLAQRLATHGFVTLAMNTNNPLLDSPSSRGIQLRAAIAYLTGSSAPAAVKAHVDATRRAVYGHSMGGGGVLYALTSDKTLKAGFPMAPYNTATTSFPTITSATMILTGTGDTTAPPSTYGLPMYNSLPVTTQKAYALLTGAGHS [TEP161]”, the “purified protein yield per well” value is under 25 µg.

As to “CAAQAQTSPPTSASLNATAGPLSVSTSSVSSWAARGFGGGTIYYPNATGRYGVVAISPGYTARQSSIAWLGRRLATHGFVVITIDTNSTLDQPPSRATQLMAALNHVVNNANATVRSRVDASKLAVAGHSMGGGGSLIAAENNPSLKAAYPLTPWSVSKNYSSVRVPTMIIGADGDSIASVSTHSRLFYNSLSSNVSKAYGELNNASHFTPNYTNTPIGRYAVTWMKRFVDNDTRYSPFLCGAPHDSYATRTVFDRYEDNCAY [ESM071]”, the “purified protein yield per well” value is under 25 µg.

Turning to “CADRPPVQDEDPAPTAASLAAPLGPYRTSTATVPRGLTEAFGGGTIYYPSGRPRGDTFGGVIIAPGRNGNQGGMAWYGPLLASRGFVVFAIDTLHLKDRPAARAHELEAAMTYLTVRSPVATLVDADRLAVMGHSFGGGAALETAADRPTLRAAIPLMPYDKGREFSNVRVPTLVVAAQNDKIAPVSRHARRFYRSIPASSGKGYLEIAGTTHSSPKKPNTTLAAYVIAWLKRYVDGDERYERFLCPGPIDDPSVALYRNPCS [TEP060]”, the “purified protein yield per well” value is under 25 µg.

For “CASVASPPAATLAALSGNGSYEVMTYTDFPDVPEFGDATIYYPQDAPAPVGGVAIAPGFTEVQSHISWWGPRLASHGFAVLVLDTNDRRDRPDLRADALIAAVTLLRAENSRSGSPLNSRIDVGKMAIMGHSMGGGGVLLAANEHSDQIQAAIPFTPWVPDVEFGNITVPTLVIAGSADRIANVTDHAWRHF [TEP113]”, the “purified protein yield per well” value is under 25 µg.

As for “CATAGSTTDSAPVSAASLSVDGAYEVRTYSDFPDVPEFGAATIYYPVGVPQPIGGVAIAPGFTEEQRHISWWGPRLASHGYAVLVLDTNERRERPDARASALIAGVTLLRAEGLRQGSPLFGGIDLAKMAIMGHSMGGGGALLAANEHSDQIRAAIPFTPWEPETNLGGVSAPTLVLAGAADGIAEVDEHAWRHFSMIPESTPKVYLEIAGGDHYIADTTRGTDLATVGRYAIAWLKLYVDRDERYRDFIYGE [TEP065]”, the “purified protein yield per well” value is under 25 µg.

As to “CDSILFQSIASPGPYNVLSIDESDGIRNGQDYNGATIFYPEGNLYNLPSIVFVPGYSNTQFTIQNWGLFLASYGIVTMTIGTNTLIDSHIQRKDALLDALITIKQENVRSSSPLYNSLDTLKLALGGFSKGGGGAQLAASIGQNIKAVIALYPWLENISAVDLNHDVPVLIVSGNLDIIAPPSLHADVHYMYTPETTKKLKYEIAFATHDPLIGPNAGFGEVGKKTLSWLQTFLLGDSCFCPYLLDTPSNASIYMSNLNCTEISTNTYNLESNQEKKILKIIDIFGREVRPKKNMILFYIYNDQSVKKIIIK [TEP139]”, the “purified protein yield per well” value was under 25 µg.

With “CDSILSQSLTNTGPYNVLSINESDGIRNGQHYNGATIFYPEGNLTNLASMVFVPGYSNTQLSIQNWGFFLASHGIVTMTIGTNSLLDSHIKRKDALLDALVTVKQENVRVSSPLYNSLDTLKLALGGFSKGGGGAQLAASVGQNIKAIIALYPWLENISSSDLNHNVPVLIVSGSLDIIAPPSLHADVHYMYTPQTTNKLKYELAFGTHDPLTGPNAGSGEVGKKTLSWLQTFLLSDTCFCPYLLDTPNNASIYMSNLNCTEIGTNTNNLQSNTEKKLVKIIDVFGREVSPKKNMILFYVYDNQSVKKIIIK [TEP094]”, the “purified protein yield per well” value was under 25 µg.

As to “CESRRGPDPTRVSVESTAGPFAIATTTVSSGNGFGGGTIYYPTSTAEGRFGGVAIAPGFTKTQSSIAWYGPRLASQGFVVFTIDTNSGLDFPASRGDQLLAALDFLTSSSSVKSRVDANRLAVMGWSMGGGGALEAAKDRPALKAAIPLAGWNTTTEWSSVTVPTLVVACENDSTAPVASHSRPFYDSLTSAQERAFVEMAGAPHGCVTSPTTAVARWTISWLKRFVDGDTRYTQFLCPPPADSTVSTQLTSCPM [TEP177]”, the “purified protein yield per well” value is under 25 µg.

Regarding “CGDRDAGDPAPTESSLTAPLGPEKYRTEVVPRAYVEAFGGGTIYYPAGRPPGERLGAVTIVPGSRGYQSGMAWYGPLLASRGFIVFTIDTLHLKDQPAKRSLELEAALTYLATRSAVASHVDAERLAVMGHSLGGGGTLDLAATRPNLKAAIPLMPYDKAKDFSNVRVPTLVVAAQHDKIAPVGKHAEVFYRSIPASQPKAYLEIAGATHSFPKRRDATLAKYVIAWLKRYVDGDKRYDRFLCPGPQNDPHVARYASDCTPR [DP095]”, the “purified protein yield per well” value was under 25 µg.

Regarding “CGLCKAQTCDTLTLDSIYDPGAYSFATLLESDGIRNGPDYAGATIYYPTNGIPPYPAIAICPGHSTFEYTIQAWGPFYASHGIVTITIGTNSIYDYPDARKNAILDALETVRQENVRSGSPLFGYLDLSRLAVSGWSMGGGGAQLAAAADTTIKAVVGLCPWLESWRTAADLNHPVPTLILSGQIDAIAPPYYHADVHYGYIP [TEP133]”, the “purified protein yield per well” value is under 25 µg.

Regarding “CGTTTSTLTTPAVTPQTLSGAATNPYERGPAPTTALLEAARGPYATASTTVPRSSVSDFGGATIYYPTSTADGTFGGVAISPGYTGTQASVAWLGPRLASHGFVVIVIDTLSRYDYPSSRGDQLRAALRYLTTSSAVRTRVDATRLAVMGHSMGGGGALEAAKDNPALKAAIPLTPWNTDKSWPELTTPTLIFGAQNDSVAPVSSHAIPFYTSLASTLPKAYLELRGASHGAPTSTNTTIAKYAVAWLKRFEDADRRYDPFLCPTPAVSTLLSDARSTCPFN [DP069]”, the “purified protein yield per well” value was under 25 µg.

In the case of “CSEEPHKAGGPWAGPYEVVTQQVSADDADGGFGDGTVRYPDDGSRDYGVIAASPGLGADESTVAPYGELLASHGFVVITIDTKTPEDSPAQRGRQLLRALDYATERSDAADRADPRRLGVLGHSMGGGGALYAAARNPHIRAAVPLTPYATRRDWHRVEAPTLVVGGSDDEVAPVSEYADAFYEGLSGAREKAYLELKGDHFVATPPDGLVSRQVVAWFGHFLAGAPGSPCPLPSGDGVTESRDTCPFGTRGR [TEP179]”, the “purified protein yield per well” value is 25.7 µg.

Take “CSGSTPTAPAAPAPKATAAPNDRPAPTAQVPRSFERGPAPSEKSVTAKRGPFAFEKIEVPAGSGPGFNKGTIYAPTDTSRGTFGAVVMSPGFASPHTWIDWYGPRLASQGFVVMMLETNTLFDVPLLRGRQIVAALDYLTARSVVRGRVDPSRTAVMGHSMGGGGTLEAARQRPGLKAAVPLAPWNPDYNWGGVVVPTMIIGAQRDVIAPTALMSEAYYNRLTAAPEKAYLVLRGAGHLTFMSPNATIAKYVISWMKRFVDNDSRYDRFLCPPPKPRGLLTVYRGTCPTG [DP037]”: the “purified protein yield per well” value was under 25 µg.

“CTWRGPNPPPATLDAPMGPFTTTSSVVTTSPGFGDGTMYYPDTEPGPFGVVAVAPGWLASQNSLDTLGNRIASHGFVVITIDVNRPRSDGPQSRADQLLAALDQVANEAAVAGIADNTRQAVMGHSMGGGGALYASIDRPALKASIPLAPWARGADFSAVTVPTMIIGCEDDTVAPVGSHAIAFYDAIANTVPKAYAEIADASHSCVNDFNTDPLETAEVASSAVSFLKRFVDNDSRYTPFLCPIPELDPPLSDRRATCPYN [TEP148]”: the “purified protein yield per well” value was under 25 µg.

Regarding “CVFPPAPPPPGSGYTITTVAAGNGFGGGTIYLPEGVTGRRGAVAVVPGFTGTQSTVAWYGPLLAKEGYVVFTIDTNSGWDSPQARGTQLLAALDYLTTQSSAASRVDPARLAVMGHSMGGGGSLEAAKARPSLKAAIPLAGWNSVTNFSTVTVPTLVVA [TEP070]”, the “purified protein yield per well” value is under 25 µg.

In the case of “DANPYQRGPAPTESSVAAEKGPFAVAQTDVPAGSGQGFNDGTIYYPTDTSQGTFGAVVVMPGFVSPQEWIRWYGPLLASQGFVVMTLDSNTLLDFPGARGDQILAALDYLTTKSKVVDRIDTGRLAVMGWSMGGGGTLEAAAERPSLKADIALAPWDLDNVAAKVKVPSMIIADDTDILAPTGVFAKPFYDAMSTAPDKAFFELKSANHFTFTSYNKTIAKYAVSWLKRFVDDDTRYDQFLCPKPAPSNEITQFEETCPLG [TEP059]”, the “purified protein yield per well” value is under 25 µg.

Take “DEIGQAPTAANITGDGSFSTSSSAIFGQSGFGGGTAYYPNTAGKYPVVAFAPGFLSDWNALNWLGPRVASWGFVVVGVNTNTPFDFPDARGDQLLAALNWAVNSAPAAVRDKADGSRRGVSGWSMGGGGTLEALAKDTTGTVKAGVPLAPWHTNKTWSKVTEPVFIIGGQNDSVAAPASHAIPFYNSLGGPKSYLERAGADHFFPTKSNGTVSRAVVSFFKRHVSADTRFTPFLCGFSGLDVSNFRSNSC [ESM030]”: the “purified protein yield per well” value was under 25 µg.

In the case of “DEIGQAPTAANITGNGSFAVTSAAVTGASGFGGGTVYYPTTAGTYPVVAIAPGFTQAWSAIQWLGPRLSSWGFVVVGINTNSSLDFPASRGTQLLAALNWAVASAPAAVTSRADGTRRGVAGYSMGGGGTLEALSQDTTGAVKAGVPMAPWHTDTTWQQVTEPVFILGGQNDSTAPVASHAKPMYNSLGGPKTYVELAGAPHSFPRTDNATTSRALVSWFKRWLNGDARFTPFTCGFTGTAISAYQTTAC [ESM099]”, the “purified protein yield per well” value was under 25 µg.

As to “DEIGQAPTPSNITGSGSFSTTSSTITGQSGFGGGTVYYPTASGKYPVVAMVPGFLSDWSSISWLGPRVASWGFVVVGANTNSGLDDPTSRGDQLLAALNWAVNSSPTAVRGKTDGTRRGVAGWSMGGGGTLEALAKDTSGVVKAGVPLAPWHNDKSWNQVNEPVFLIGGENDGVASPDSHAIPFYNSLGGPKSFLERAGANHFFPNSSDPTVSRAVVSFLKRHVSADNRFSPYVCGFSGSAVSDFRSNSC [ESM133]”, the “purified protein yield per well” value is under 25 µg.

On to “DEIGQAPTSSNITGNGSFSVSTYNISSLVSGFGGGVAYYPTTSGRYPVVAVSPGFTARWSSISWIGPRLASWGFVVVGIETNGLYDQPASRGSQLLAALNWAVNSAPSAITSRADGSRRGVAGHSMGGGGTLEALAADTTGNVKAGVPIAPWNSDKTWSGINEAVQIVGGESDTIASVGSHSIPFYNSVSGPKSYVELNGASHFFPQSTNSTLSRALVSWFKRYLNQDARFTPFTCGYGGTAVSDFRTNAC [ESM151]”, for which the “purified protein yield per well” value is under 25 µg.

In the case of “DEIGSAPTAATITGNGSFATASTSVSSPSGFRGGQVYYPSTAGTYPVIAVVPGYLSYWSSISWLGPRLASWGFVVVGIETNSIYDQPASRGSQLRAALTWAVNTSPTTVRSRVDANRQGVAGWSMGGGGSLEALKADTSGRIKAAVPMAPWNSDQSWPEVTESVAIVGGQSDSVAPVSSHSIPFYNSLAGPKSYVELAGASHFFPNSDNPSLSRMIVSWFKRWINNDTRFTTFTCGFTGSAISSFRTNAC [ESM178]”, the “purified protein yield per well” value was determined as 27.5 µg.

For the sequence “DENPLERGPDPTESFIEQRRGNYDVAQRSINRMGSDGFRNGTIYYPTDSSDGQFGVIAISPGYTAGESSIAWLGARMASFGFVVVTINTTTRYDQPRQRSTQLLAALDHAMEDSVVGPMIDPERQAVMGHSMGGGGALQAAESRPEIDAVIPLTPWNLKRNWRNIDAATLIIGAERDTIASVRTHSIPFYESLTGADQRGYLELRGASHFAPNFSNTTIAKYSVAWMKRHLDDDERYEKFLTPGPTVGYSSGVSDYRLQ [DP097]”, the “purified protein yield per well” value was under 25 µg.

Values taken from the supplement of paper PMC12455559.
